Measurements taken from patent US20220265759A1 (BOARD OF TRUSTEES OF THE UNIVERSITY OF ILLIOIS, published 2022).
Values belong to the binder of their own block, whether it stands above or below them.

Tests used:
[1] = target: calmodulin (CaM) (human, UniProt P0DP23 2-149); assay: Co-IP in endothelial cells; not affected by Myr-CBD7 pretreatment
[2] = target: T1, mouse eNOS (mouse, UniProt P70313 2-1202); assay: Co-IP from mouse wounds (FIG. 4)
T1 construct: whole, on cells; Endogenous protein in mouse wound homogenates used for Co-IP; also called eNOS (mouse wounds)
T1 sequence (looked up): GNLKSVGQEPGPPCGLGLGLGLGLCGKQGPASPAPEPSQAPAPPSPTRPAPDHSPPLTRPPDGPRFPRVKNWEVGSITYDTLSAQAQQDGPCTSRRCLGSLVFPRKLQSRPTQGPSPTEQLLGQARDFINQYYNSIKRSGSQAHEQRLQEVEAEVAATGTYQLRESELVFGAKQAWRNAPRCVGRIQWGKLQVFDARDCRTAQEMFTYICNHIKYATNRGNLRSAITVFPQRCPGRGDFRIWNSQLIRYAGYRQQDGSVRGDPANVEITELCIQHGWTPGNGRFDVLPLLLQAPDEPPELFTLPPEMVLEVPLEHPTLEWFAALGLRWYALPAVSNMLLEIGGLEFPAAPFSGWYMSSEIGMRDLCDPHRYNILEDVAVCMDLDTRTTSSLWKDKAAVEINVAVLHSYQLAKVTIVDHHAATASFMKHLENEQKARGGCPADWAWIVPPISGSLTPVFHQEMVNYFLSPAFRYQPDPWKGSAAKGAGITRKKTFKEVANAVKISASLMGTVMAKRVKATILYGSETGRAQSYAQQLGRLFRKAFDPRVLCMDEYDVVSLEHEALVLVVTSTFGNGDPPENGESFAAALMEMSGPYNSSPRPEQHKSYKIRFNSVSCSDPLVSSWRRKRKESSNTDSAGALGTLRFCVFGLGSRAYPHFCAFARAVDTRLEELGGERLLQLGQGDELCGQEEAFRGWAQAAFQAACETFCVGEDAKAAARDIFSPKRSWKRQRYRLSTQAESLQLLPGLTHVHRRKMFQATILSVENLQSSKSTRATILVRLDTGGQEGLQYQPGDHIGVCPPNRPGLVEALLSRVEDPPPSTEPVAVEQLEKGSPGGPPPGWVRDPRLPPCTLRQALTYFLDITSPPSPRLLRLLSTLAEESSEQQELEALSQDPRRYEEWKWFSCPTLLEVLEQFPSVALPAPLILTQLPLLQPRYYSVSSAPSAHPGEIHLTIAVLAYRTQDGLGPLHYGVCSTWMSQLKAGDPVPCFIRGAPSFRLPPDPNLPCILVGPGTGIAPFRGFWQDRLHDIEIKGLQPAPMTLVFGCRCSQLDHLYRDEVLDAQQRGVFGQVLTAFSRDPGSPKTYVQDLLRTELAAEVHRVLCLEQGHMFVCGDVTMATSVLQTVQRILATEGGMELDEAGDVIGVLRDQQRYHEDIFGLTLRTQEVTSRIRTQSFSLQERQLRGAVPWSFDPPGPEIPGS

- binding result [1]: binds
B1: human endothelial nitric oxide synthase (eNOS) (enzyme)
chain: GNLKSVAQEPGPPCGLGLGLGLGLCGKQGPATPAPEPSRAPASLLPPAPEHSPPSSPLTQPPEGPKFPRVKNWEVGSITYDTLSAQAQQDGPCTPRRCLGSLVFPRKLQGRPSPGPPAPEQLLSQARDFINQYYSSIKRSGSQAHEQRLQEVEAEVAATGTYQLRESELVFGAKQAWRNAPRCVGRIQWGKLQVFDARDCRSAQEMFTYICNHIKYATNRGNLRSAITVFPQRCPGRGDFRIWNSQLVRYAGYRQQDGSVRGDPANVEITELCIQHGWTPGNGRFDVLPLLLQAPDDPPELFLLPPELVLEVPLEHPTLEWFAALGLRWYALPAVSNMLLEIGGLEFPAAPFSGWYMSTEIGTRNLCDPHRYNILEDVAVCMDLDTRTTSSLWKDKAAVEINVAVLHSYQLAKVTIVDHHAATASFMKHLENEQKARGGCPADWAWIVPPISGSLTPVFHQEMVNYFLSPAFRYQPDPWKGSAAKGTGITRKKTFKEVANAVKISASLMGTVMAKRVKATILYGSETGRAQSYAQQLGRLFRKAFDPRVLCMDEYDVVSLEHETLVLVVTSTFGNGDPPENGESFAAALMEMSGPYNSSPRPEQHKSYKIRFNSISCSDPLVSSWRRKRKESSNTDSAGALGTLRFCVFGLGSRAYPHFCAFARAVDTRLEELGGERLLQLGQGDELCGQEEAFRGWAQAAFQAACETFCVGEDAKAAARDIFSPKRSWKRQRYRLSAQAEGLQLLPGLIHVHRRKMFQATIRSVENLQSSKSTRATILVRLDTGGQEGLQYQPGDHIGVCPPNRPGLVEALLSRVEDPPAPTEPVAVEQLEKGSPGGPPPGWVRDPRLPPCTLRQALTFFLDITSPPSPQLLRLLSTLAEEPREQQELEALSQDPRRYEEWKWFRCPTLLEVLEQFPSVALPAPLLLTQLPLLQPRYYSVSSAPSTHPGEIHLTVAVLAYRTQDGLGPLHYGVCSTWLSQLKPGDPVPCFIRGAPSFRLPPDPSLPCILVGPGTGIAPFRGFWQERLHDIESKGLQPTPMTLVFGCRCSQLDHLYRDEVQNAQQRGVFGRVLTAFSREPDNPKTYVQDILRTELAAEVHRVLCLERGHMFVCGDVTMATNVLQTVQRILATEGDMELDEAGDVIGVLRDQQRYHEDIFGLTLRTQEVTSRIRTQSFSLQERQLRGAVPWAFDPPGSDTNSP
notes: whole, on cells; Endogenous intracellular / membrane-associated protein of human endothelial cells; co-immunoprecipitated from lysates

- binding result [2]: binds
B2: mouse CCR10 (receptor, UniProt Q9JL21 1-362, looked up)
chain: MGTKPTEQVSWGLYSGYDEEAYSVGPLPELCYKADVQAFSRAFQPSVSLMVAVLGLAGNGLVLATHLAARRTTRSPTSVHLLQLALADLLLALTLPFAAAGALQGWNLGSTTCRAISGLYSASFHAGFLFLACISADRYVAIARALPAGQRPSTPSRAHLVSVFVWLLSLFLALPALLFSRDGPREGQRRCRLIFPESLTQTVKGASAVAQVVLGFALPLGVMAACYALLGRTLLAARGPERRRALRVVVALVVAFVVLQLPYSLALLLDTADLLAARERSCSSSKRKDLALLVTGGLTLVRCSLNPVLYAFLGLRFRRDLRRLLQGGGCSPKPNPRGRCPRRLRLSSCSAPTETHSLSWDN
notes: whole, on cells; Endogenous protein in mouse wound homogenates used for Co-IP; also called CCR10 (mouse wounds)
